The target in experiment [1] is T1, extracellular domain of activin receptor type IIB (ActRIIBecd), biotinylated (Homo sapiens (Human), UniProt Q13705 27-117, amino-biotinylated with amine-PEG3-Biotin).
T1 construct: immobilised on a streptavidin-coated sensor chip; also called biotinylated ActRIIBecd; extracellular domain of ActRIIB
T1 sequence: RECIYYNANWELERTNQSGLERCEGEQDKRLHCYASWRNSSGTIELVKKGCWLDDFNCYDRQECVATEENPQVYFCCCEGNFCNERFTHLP
As to the kind of experiment: BIAcore SPR as Example 5 (method not restated); SD ±2.01 nM. As for the experimental part: Biosensor experiments. In one embodiment, experiments were performed on a BIAcore™ T100/T200 instrument (Pharmacia Biosensor AB) in the multichannel mode (serial flow path involving flow cells 1+2+3+4). Flow rate was 10 μl/min; temperature was 25° C.; and data were recorded at 2.5 points/s. All four segments of a sensor chip CMS were coated with streptavidin (Sigma) to a density of 2000 pg/mm² (2000 resonance units) by the aminocoupling procedure. ActRIIBecd (10 mg) and amine-PEG3-Biotin (10 mg, Pierce, Rockford, Ill.) were dissolved in 200 μl H₂O and 10 mg NaCNBH₃ was added to prepare biotinylated ActRIIBecd. The reaction mixture was heated at 70° C. for 24 h, after that a further 10 mg NaCNBH₃ was added and the reaction was heated at 70° C. for another 24 h. After cooling to room temperature, the mixture was desalted with the spin column (3,000 molecular weight cut off (MWCO)). […] Sensograms were recorded during flow of the analyte (the ActRIIBecd-associated polypeptides (i.e., domains) as previously described) first through flow cell 1 (control) then through flow cell 2 (biotinylated ActRIIBecd). […] The sensograms obtained at 1.11, 3.33, 10, 30, and 90 nM analyte were evaluated for equilibrium binding, association rate, and dissociation rate by using the programs supplied with the instrument (BIA evaluation 2.1; Software Handbook. 1995; Pharmacia Biosensor AB).
For orientation: In SPR one partner is held on a chip, and binding of the other changes the refractive index at the surface.

In experiment [2] the target is T1, extracellular domain of activin …. Kind of experiment: Mean KD column of Table 5; method not restated (BIAcore as Example 5); species also listed in Table 4. Summed up:
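Biotinylated ActRIIBecd was captured on a streptavidin-coated sensor chip at 50-250 RU, and the polypeptides, diluted in glycine buffer pH 4.5, were injected at 1.11, 3.33, 10, 30 and 90 nM. Runs were at 25° C and 10 μl/min, with reference-cell sensograms subtracted before fitting equilibrium binding, association and dissociation rates.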

From patent US20190071480A1 (Biogen, published 2019) come the findings set out here.

B1: SEQ ID NO: 194, cysteine pairs C23-C65^a (designed binder)
chain: VDFSDVGWNDWIVAPPGYHAFYCHGECPFPLADHLNSTNHAIVQTLVNSVAQAKHKQRKRLKSSCKRHPLY
modifications: disulfides C23-C65 (intra)
One may read the Kd as the free concentration of one partner at which half of the binding sites on the other are occupied at equilibrium, for simple one-to-one binding. A higher Kd goes with a looser complex. As to B1, the Kd in experiment [1] and in experiment [2] was 46 nM in each case.
